Data from US20170100463A1, “METHOD TO IMPROVE SAFETY AND EFFICACY OF ANTI-CANCER THERAPY” (CLS Therapeutics Limited, priority 2014, published 2017).

What was measured:
[1] = system: L1210 leukemia cells; assay: Survival of mice transplanted with L1210 leukemia cells; assay type: in vivo, DBA2 mice; details: AraC 1000 mg/kg IP Days 2, 5, 8; DNase II 15 or 45 mg/kg/day IP; alone or combined
Method: Treatment with DNase and AraC was initiated on Day 1 of experiment. Cytosine arabinoside (AraC; Cytosar; Pfizer) was injected IP at a dose of 1000 mg/kg on Days 2, 5 and 8. The injected doses were considered adequate for the model and injection route based on prior experiments (13-14). DNase II (Wornington) was injected IP at doses of 15 mg/kg/day and 45 mg/kg/day on Days 1, 3, 5, 8, 10, 12, 15, 17, and 19.
Animals were randomized into 6 experimental groups of 6 mice per group as follows: • 1. Group I: negative control (no treatment); • 2. Group II: positive control (animals treated with AraC); • 3. Group III: animals treated with AraC and 15 mg/kg DNase; • 4. Group IV: animals treated with AraC and 45 mg/kg DNase; • 5. Group V: animals treated with 15 mg/kg DNase, no AraC; • 6. Group VI: animals treated with 45 mg/kg DNase, no AraC.

[2] = Gastrointestinal lesions after Etoposide/5-FU chemotherapy in rats; assay type: in vivo, male Wistar rats; details: for Total number of lesions per group: 16 rats; for Total number of lesions per group / Number of lesion free animals (percent) / Median number of lesions / Number of lesion free animals: Etoposide 200 mg/kg + 5-FU 400 mg/kg per os; for Total number of lesions per group / Median number of lesions: 36 hours; for Number of lesion free animals: of 16 rats
Method: Animals were divided into 4 groups of 16 rats each. Two hours after the Etoposide/5-FU challenge, rats were treated as follows: • 1. Group I: IV placebo (WFI); • 2.

[3] = in vivo
Excerpt: Group I: control group (no Doxorubicin, no DNase); • 2.
Animals were monitored during 2 weeks from the beginning of experiment for survival and weight.

[4] = Cyclophosphamide-induced neutropenia, white blood cell count; assay type: in vivo, BALB/C mice; details: mice, cyclophosphamide 200 mg/kg IP Day 1; for early phase decline in WBC count (FIG. 3): DNase I 25 mg/kg/day IV or GM-CSF 200 μg/kg/day SC Days 2-5
Method: 30 female 10-12 week old BALB/C mice (obtained from Rappolovo animal house) were used in this experiment. […] On Day 1, neutropenia was induced by a single IP injection of 200 mg/kg cyclophosphamide (Cyclophosphanum-LANS) in 200 μl of WFI. Starting on Day 2, mice were then treated as follows: • 1. Group I (n=10): control (no treatment); • 2. Group II (n=10): animals were treated with human recombinant DNase I (Pharmsynthez OJSC) at 25 mg/kg/day (50000 KU/kg/day) dose injected IV on Days 2-5; • 3. Group III (n=10): animals were treated with human recombinant GM-CSF (Neostim, Pharmsynthez OJSC) at 200 μg/kg/day dose injected subcutaneously (SC) on Days 2-5.
The white blood cell count (WBC) in each animal was monitored daily during the 10 day experiment using blood cell counter.

[5] = Myocardial necrosis area in deceased rats challenged with doxorubicin; assay type: in vivo; details: doxorubicin 7.5 mg/kg, DNase I 15 mg/kg daily IP vs placebo
Method: FIG. 1 is a bar graph showing myocardial necrosis area in deceased rats challenged with sub-lethal IV doses of doxorubicin (7.5 mg/kg) and either daily IP injections of human recombinant DNase I (15 mg/kg) (black bar) or daily IP injections of placebo (WFI) (diagonal hatched bar). Serial myocardium microscopy samples from each heart were analyzed using an automated video analyzer to quantify the necrotic areas. The sum of necrotic area (Sna; nm^2) was calculated as a sum of necrotic areas in 30 serial slides from each individual autopsied heart (n=3 for DNase I-treated rats—black bar; n=5 for placebo-treated rats—diagonal hatched bar).
The hearts deceased rats challenged with sub-lethal doses of doxorubicin (7.5 mg/kg) from (Groups IV and V) were autopsied. Serial myocardium microscopy samples from each heart were analyzed using an automated video analyzer to quantify the necrotic areas. The sum of necrotic area (Sna; nm^2) was calculated as a sum of necrotic areas in 30 serial slides from each individual autopsied heart (n=3 for Group IV (FIG. 1, black bars); n=5 for Group V (FIG. 1, diagonal hatched bars)). Group IV received daily IP injections of human recombinant DNase I at 15 mg/kg dose, while Group V received daily IP injections of placebo (WFI).

[6] = system: Erlich carcinoma cells; assay: Erlich carcinoma ascites tumor with radiotherapy: survival and body weight
Method: Radiotherapy was performed using a cobalt-60 teletherapy machine. The abdominal fields of the mice were treated by external irradiation. The fractionation was 200 cGy per day for 5 days. Mice were divided into 6 groups treated as follows: Group 1: radiotherapy only (external irradiation 200 cGy per day for 5 days); Group 2: recombinant human DNAse I (Pharmsynthez) 20 mg/kg/day administered intramuscularly in 2 daily doses; Group 3: recombinant human DNAse I (Pharmsynthez) 40 mg/kg/day administered intramuscularly in 2 daily doses; Group 4: radiotherapy (external irradiation 200 cGy per day for 5 days) plus recombinant human DNAse I (Pharmsynthez) 20 mg/kg/day administered intramuscularly in 2 daily doses; Group 5: radiotherapy (external irradiation 200 cGy per day for 5 days) plus recombinant human DNAse I (Pharmsynthez) 40 mg/kg/day administered intramuscularly in 2 daily doses. Group 6 was a control group receiving placebo (water for injection).

[7] = Doxorubicin 7.5 mg/kg/day IV 5 days + DNase I 15 mg/kg/day IP (Group IV) or placebo (Group V)
[8] = Doxorubicin 10.0 mg/kg/day IV 5 days + DNase I 15 mg/kg/day IP (Group VI) or placebo (Group VII)
[9] = rats, Doxorubicin 7.5 mg/kg/day IV 5 days + DNase I 15 mg/kg/day IP (Group IV) or placebo (Group V), monitored 2 weeks
[10] = rats, Doxorubicin 10.0 mg/kg/day IV 5 days + DNase I 15 mg/kg/day IP (Group VI) or placebo (Group VII), monitored 2 weeks
[11] = Group 2: DNAse I 20 mg/kg/day intramuscularly, no radiotherapy
[12] = Group 3: DNAse I 40 mg/kg/day intramuscularly, no radiotherapy
[13] = Group 4: radiotherapy 200 cGy per day for 5 days plus DNAse I 20 mg/kg/day intramuscularly
[14] = Group 5: radiotherapy 200 cGy per day for 5 days plus DNAse I 40 mg/kg/day intramuscularly

Molecule: Nc1ccn([C@@H]2O[C@H](CO)[C@@H](O)[C@@H]2O)c(=O)n1 [AraC, cytosine arabinoside]
- survival after implantation of L1210 leukemia cells (FIG. 4) [1]: better survival rates versus non-treated mice

Molecule: CN/C(=N/CCSCc1nc[nH]c1C)NC#N [Cimetidine, cimetidine, reference compound]
- Total number of lesions per group ([2]; treatment 50 mg/kg IV): 40
- Number of lesion free animals (percent) ([2]; treatment 50 mg/kg IV): 62.5%
- Median number of lesions ([2]; treatment 50 mg/kg IV): 2.5 ± 1.1
- Number of lesion free animals ([2]; treatment 50 mg/kg IV): 10

Molecule: COc1cccc2c1C(=O)c1c(O)c3c(c(O)c1C2=O)C[C@@](O)(C(=O)CO)C[C@@H]3O[C@H]1C[C@H](N)[C@H](O)[C@H](C)O1 [Doxorubicin, reference compound]
- Median survival of deceased rats [3, 7]: 8.2 ± 1.0 days
- Median survival of deceased rats [3, 8]: 6.6 ± 0.9 days
- Median survival of deceased rats ([3]; male, Wistar, rat, in vivo): 12 ± 2.1 days
- Number of dead/out of total in group ([3]; male, Wistar, rat, in vivo): 3/6
- LD50 at 2 weeks ([3]; male, Wistar, rat, in vivo, iv): 3.75 mg/kg
- Number of dead/out of total in group [3, 9]: 5/6
- Number of dead/out of total in group [3, 10]: 6/6

Molecule: GM-CSF: human recombinant GM-CSF (Neostim, Pharmsynthez OJSC)
- early phase decline in WBC count (FIG. 3) [4]: not able to prevent it

B1: human recombinant DNase I: human recombinant DNase I (Pharmsynthez OJSC), deoxyribonuclease enzyme (protein, UniProt P24855 23-282, looked up)
Deoxyribonuclease-1: LKIAAFNIQTFGETKMSNATLVSYIVQILSRYDIALVQEVRDSHLTAVGKLLDNLNQDAPDTYHYVVSEPLGRNSYKERYLFVYRPDQVSAVDSYYYDDGCEPCGNDTFNREPAIVRFFSRFTEVREFAIVPLHAAPGDAVAEIDALYDVYLDVQEKWGLEDVMLMGDFNAGCSYVRPSQWSSIRLWTSPTFQWLIPDSADTTATPTHCAYDRIVVAGMLLRGAVVPDSALPFNFQAAYGLSDQLAQAISDHYPVEVMLK
- Median survival of deceased rats [3, 7]: 10.3 ± 1.4 days
- Median survival of deceased rats [3, 8]: 6.2 ± 1.0 days
- Body weight of surviving rats, Baseline ([3]; rat, in vivo): 168 ± 4 grams
- Body weight of surviving rats, Day 4 ([3]; rat, in vivo): 160 ± 6 grams
- Body weight of surviving rats, Day 7 ([3]; rat, in vivo): 158 ± 5 grams
- Body weight of surviving rats, Day 14 ([3]; rat, in vivo): 164 ± 6 grams
- Median survival of deceased rats ([3]; rat, in vivo): 7 days
- Number of dead/out of total in group ([3]; rat, in vivo): 1/6
- Number of dead/out of total in group [3, 9]: 3/6
- Number of dead/out of total in group [3, 10]: 6/6
- myocardial necrosis area (sum of necrotic area, FIG. 1) [5]: decreases the myocardial necrosis area
- Total number of lesions per group ([2]; treatment 1.5 mg/kg IV): 60
- Total number of lesions per group ([2]; treatment 50 mg/kg IV): 16
- achieved protection against chemotherapy-induced ulceration ([2]; DNase I 50 mg/kg compared to 1.5 mg/kg DNase I and 50 mg/kg cimetidine): significantly superior
- Number of lesion free animals (percent) ([2]; treatment 1.5 mg/kg IV): 31.25%
- Median number of lesions ([2]; treatment 1.5 mg/kg IV): 3.75 ± 1.53
- Number of lesion free animals (percent) ([2]; treatment 50 mg/kg IV): 75%
- Median number of lesions ([2]; treatment 50 mg/kg IV): 1.00 ± 0.69
- Number of lesion free animals ([2]; treatment 1.5 mg/kg IV): 5
- Number of lesion free animals ([2]; treatment 50 mg/kg IV): 12
- macroscopic appearance of stained stomach (FIG. 2A) ([2]; oral Etoposide 200 mg/kg and 5-FU 400 mg/kg followed by IV DNase I 50 mg/kg): does not have any macroscopic abnormalities
- neutropenia induced by cyclophosphamide (WBC, FIG. 3) ([4]; DNase I 25 mg/kg/day IV Days 2-5): ameliorates neutropenia
- early phase decline in WBC count (FIG. 3) [4]: prevents the typical early phase decline in WBC count
- % Survival on Day 16 [6, 11]: 40%
- Change in Median Body Weight on Day 16 [6, 11]: +2 g
- % Survival on Day 16 [6, 12]: 50%
- Change in Median Body Weight on Day 16 [6, 12]: +1.5 g
- % Survival on Day 16 [6, 13]: 80%
- Change in Median Body Weight on Day 16 [6, 13]: 0
- % Survival on Day 16 [6, 14]: 100%
- Change in Median Body Weight on Day 16 [6, 14]: +1.5 g
